Measurements reported in patent publication US20220307010A1 (published 2022).

B1: hTIGIT (receptor)
chain: MMTGTIETTGNISAEKGGSIILQCHLSSTTAQVTQVNWEQQDQLLAICNADLGWHISPSFKDRVAPGPGLGLTLQSLTVNDTGEYFCIYHTYPDGTYTGRIFLEVLESSVAEHGARFQIP
modifications: biotinylated antigen (site not given)
Kd (TIGIT55-08): 113 nM | Kd (TIGIT55-11): 327 nM | Kd (TIGIT55-06): 153 nM | Kd (TIGIT55-05): 97.6 nM | Kd (TIGIT55-13): 112 nM | Kd (TIGIT55-01): 15.9 nM | Kd (TIGIT55-14): 139 nM
